For 1 molecule, Kd results are on record in publication doi:10.1101/2025.05.13.653810, “Spatial control of secretory vesicle targeting by the Ync13–Rga7–Rng10 complex during cytokinesis” (bioRxiv, 2025).

The test has as its target T1, MBP-Ync13–6xHis (S. pombe, UniProt O13683 1-1237).
T1 construct: Ync13, the S. pombe homolog of Munc13/UNC-13; full-length cDNA between MBP-TEV-GGSGGS and the 6His tag of pET21a; MBP is followed by a TEV site and a GGSGGS linker; also called MBP-Ync13–6His; not shown: MBP, N-terminal, kept; His6, C-terminal, kept
T1 sequence (looked up): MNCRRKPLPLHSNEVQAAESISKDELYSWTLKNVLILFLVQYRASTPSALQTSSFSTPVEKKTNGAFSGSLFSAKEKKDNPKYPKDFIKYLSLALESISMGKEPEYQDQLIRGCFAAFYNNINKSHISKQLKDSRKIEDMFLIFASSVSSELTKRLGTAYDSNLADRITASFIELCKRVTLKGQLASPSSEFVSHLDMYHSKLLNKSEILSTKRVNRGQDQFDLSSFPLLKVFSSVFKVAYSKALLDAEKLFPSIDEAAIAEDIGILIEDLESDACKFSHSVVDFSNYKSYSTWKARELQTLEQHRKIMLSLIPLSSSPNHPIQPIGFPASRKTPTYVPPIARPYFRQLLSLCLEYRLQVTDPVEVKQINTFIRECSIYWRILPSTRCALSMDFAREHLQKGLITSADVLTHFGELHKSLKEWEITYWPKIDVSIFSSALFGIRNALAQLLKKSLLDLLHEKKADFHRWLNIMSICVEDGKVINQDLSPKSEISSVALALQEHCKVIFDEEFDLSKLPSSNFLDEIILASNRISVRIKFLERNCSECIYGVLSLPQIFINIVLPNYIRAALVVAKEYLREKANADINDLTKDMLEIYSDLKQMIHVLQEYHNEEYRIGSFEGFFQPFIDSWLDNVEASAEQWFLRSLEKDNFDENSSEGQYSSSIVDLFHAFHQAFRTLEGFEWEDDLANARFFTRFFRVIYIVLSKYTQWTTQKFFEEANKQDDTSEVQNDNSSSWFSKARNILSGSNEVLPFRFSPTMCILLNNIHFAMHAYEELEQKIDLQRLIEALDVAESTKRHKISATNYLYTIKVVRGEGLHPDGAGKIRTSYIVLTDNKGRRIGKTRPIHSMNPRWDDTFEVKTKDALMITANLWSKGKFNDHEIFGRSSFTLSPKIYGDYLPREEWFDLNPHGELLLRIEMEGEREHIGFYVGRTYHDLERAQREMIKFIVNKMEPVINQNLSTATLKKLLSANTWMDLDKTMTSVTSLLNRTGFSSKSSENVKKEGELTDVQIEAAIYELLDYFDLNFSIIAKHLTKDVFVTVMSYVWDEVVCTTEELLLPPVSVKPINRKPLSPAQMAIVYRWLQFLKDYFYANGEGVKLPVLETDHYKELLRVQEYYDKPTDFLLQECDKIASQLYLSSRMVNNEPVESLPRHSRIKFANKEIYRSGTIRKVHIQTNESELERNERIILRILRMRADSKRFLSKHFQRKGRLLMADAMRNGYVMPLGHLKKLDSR
Kind of test: supernatant depletion assay; Rga7–6xHis at 4 μM titrated with MBP-Ync13–6xHis immobilized on Cobalt beads; beads pelleted at 16,000 g, supernatants on Coomassie-stained SDS-PAGE, bound fraction fitted. The settings on record: both partners purified.

B1: Rga7–6xHis (natural protein, S. pombe, UniProt O94466 1-695, looked up)
chain: MLSAPSSSTTPASPPTSPPNTTSSDDFAVLKEPKVEAILNSELGLAILNDRIKDYLLTCKELAGFFKKRSILEEESGKNLQKLAKSYLETFQSKHHSPQSFSASVITSMEIHEQLANHSLTLQKTLSAFSDQVIEFHKNAERKRKSIKEYAKKQENAYLEAVMQMDKSKSRFKGAETEYNRALDNKNTGDSQKKVGFFKPKSNAQLTKLEDEARLKAENAESDMHSKIENAQNVQKQLLCIHRPNYIKQFFSLQREIESSLIANYLRYTKLCESNTLLNGLTIRPQKPTPTNCGLQHALDNINANTDFVQYVLHASIKHEDNKNPTDASKTKIIQPPSSYGTGSSAGKTNPPVNPTIKVTAAIPSPLQNTNPAPSTFPNPSVASPAFPNSSTSNPSTAPASASPLASTLKPSTANDTNGSSSSSSSNPRTSSPLASNAENKPPVAQQSPPVLLPTLPPIQTTTIQTSREVAPPPSSINSNRAASPFRPTSVSPQPSSPTKSLLFGARLDAIILREHSNIPNIVMQCTSQVENFGLNLQGIYRVPSSSARVNMLRSQFENNPLLQLHTPEDYENDVHAVADLLKIFFRELREPLIPDNHQRDFIDAGNVEDESRRRDAVHRAINDLPDANYSTIRHLTIHLAKIKENSDVNKMSTNNLAIIWGPTIIKQATIPEISSFSRTIEILIDYCFTIFDYD
notes: Rga7, F-BAR protein and Rho2 GAP of S. pombe; full length, cloned into pET21a between the T7 tag and the 6His tag; also called Rga7–6His; not shown: His6, C-terminal, kept
B1 gave a Kd of 10 µM.
